Experiment: yeast display, Sf9 membrane polyspecificity reagent, FACS + sequencing; frameworks hold sequencing errors
How it was run: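 Nanobodies came from a synthetic yeast display library in Saccharomyces cerevisiae BJ5465, induced with galactose for 36–48 hours and stained for 1 hour at 4 °C with 10% biotinylated, detergent-solubilized Sf9 membrane reagent. Cells were enriched on streptavidin microbeads and then FACS-sorted, with low and high (top ~1%) gates set on anti-HA fluorescence for expression and streptavidin fluorescence for reagent binding. Each polyreactivity label reflects the gate a clone came from. Genes were amplified by colony PCR, sequenced by MiSeq 2 × 250 and filtered by CDR length.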

| Sequence | polyreactivity (PSR sort gate) |
| --- | --- |
| QVQLVESGGGLVQAGGSLRLSCASSGSTFFTNAMVWYRQAPGKERELVATITWSGGTTYADSVKGRFTISRDNAKNTVYLQMNSLKPEDTAVYYCADESSSYWGDQGGALWLYDYWGQGTQVTVSS | low polyreactivity |
| QVQLVESGGGLVQAGGSLRLSCASSGSTFNPYAMGWYRQAPGKERELVAAISRGGRTKYADSVKGRFSISRDNAKNTVYCHMNSLKPEDTAVYYCAARQRSRSRYDYWGQVTQVTVSS | high polyreactivity |
| QVQLVESGGGLVQAGGSLRLSCASSGSTFSYYTMGWNRQAPGKERELVAAITRSGGRTYYADSVKGRFTISRDNAKNTVYLQMNSLKPEDTAVYNCAAYRANSGEFDYWGQGTQVTVTS | high polyreactivity |
| QVQLVESGGGLVQAGGSLRLSCASSGSTFVSYAMGWYRQAPGKERELVAGISWSGTRTYYADSVKGRFTISRDNAKNTVYLQMNSLKPEDTAVYYCAALDSSYNWYGYWGQGTQVTVSS | high polyreactivity |
| QVQLVESGGGLVQAGGSLRLSCASSGSTFVSYVMGWYRQAPGKERELVARITISSGSTRYADSVKGRFTISRDNAKNTVYLQMNSLKPEDTAVSYCAVDAVDAFVFLSWDYDYWGQGTQVTVSS | low polyreactivity |
| QVQLVESGGGLVQAGGSLRLSCASSGSTIGRNAMGWYRQAPGKERELVASISSGGSTYYADSVKGRFTISRDNAKNTVYLQMESLKPEDTAVYYCARRAYQNWYNYWGQGTQVTVAS | high polyreactivity |
| QVQLVESGGGLVQAGGSLRLSCASSGSTIVHYAMGWYRQAPGKERELVAGITDTDNHELRRLCEGRFTISRDNAKNTVYLQMNSLKPEDTAVYFCNADDTYYQLGGITGYDYWGQCTQVTVSS | low polyreactivity |
| QVQLVESGGGLVQAGGSLRLSCASSGSTLFPYAMGWYRQAPGKERELVAAISSRGGRTYYADSVKGRFTISRDNAKNTVYLQMNSLKPEDTAVYYCAAGDDYWGQGTQVTVSS | high polyreactivity |
| QVQLVESGGGLVQAGGSLRLSCASSGYIFGRYAMGWYRQAPGKERELVAAISSTGDSTYYADSVKGRITISRDNAKNTVYLQMNSLKPEDTAVYYCNAVVPRYSYGRYYYWGQCTQVTVSS | high polyreactivity |
| QVQLVESGGGLVQAGGSLRLSCASSGYIFRSYAMGWYRQAPGKERELVATISWIGGGTSYADSVKGRFTISRDNAKNTVYLQMNSLKPEDTAVYYCAAGPWAYGRRHAYYSRSFDYWGQGTQVTVSS | high polyreactivity |
| QVQLVESGGGLVQAGGSLRLSCASSGYTFDYYTMGWYRQAPGKERELVARITASGGSTYYADSVKGRFTISRDNAKNTVYLQMNSLKPEDTSVYYCAKAWYRYSRFDYWGQGTQVTVSS | high polyreactivity |
| QVQLVESGGGLVQAGGSLRLSCASSGYTLRPNGKGWYRQAPGKERELVAAISSGGSTYYADSVKGRFTISRDNAKNTVYLQMNSLKPEDTAVYYCAAEYWYDYWGQGTQVTVSS | low polyreactivity |
| QVQLVESGGGLVQAGGSLRLSCASSVIILVQYVMGWYIQAPGKERELVASISRTGGSTNYADSVKGRFTISRDNAKNTVYLQMNSLKPEDTAVYYCSAKKRKIAGVGGDYWGQGTQVTVSS | high polyreactivity |
| QVQLVESGGGLVQAGGSLRLSCASSVRIFGSNVMGWYRQAPGKERELVASISSGGNTYYADSVKGRFTISRDNAKNTVYLQMNSLKPEDTAVYYCAARRGSAGQWYDYWGQGTQVTVSS | high polyreactivity |
| QVQLVESGGGLVQAGGSLRLSCASSVYIFVSNTKGWYRPAPGKERELVAAISWSGGSTNYADSVKGRFTISRDKAKNTVYLLMNSLKPEDTAVYYCNADDASHYYFRDDYWGQGTQVTVSS | low polyreactivity |
| QVQLVESGGGLVQAGGSLRLSCASYGRTFYDYAMGWYRPAPGKERELVAGIRWSGGSTYYADSVKGRFTISRDNAKNTVYLQLNRLKPEDTAVYYCAADWFAGVAADVEYDYWGQGTQVTVSS | low polyreactivity |
| QVQLVESGGGLVQAGGSLRLSCATGSIFGYNAMGWYRQAPGKERELVAAITSGGSTYYADSVKGRFTISRDNAKNTVYLQMNSLKPEDTAVYYCNRDDYNTAYRDASGYWGQGTQVTVSS | low polyreactivity |
| QVQLVESGGGLVQAGGSLRLSCATSGFTFVYNAMGWYRQAPGKESELVAAINWSGGRTYYADSVKGRFTISRDNAKNTVYLQMNSLKPEDTAVYYCAAGYSPYKGSAGYYWGQGTQVTVSS | low polyreactivity |
| QVQLVESGGGLVQAGGSLRLSCATSGSTFNDYDMGWYRQAPGKERELVAAISSSVSTYYADSVKGRFTISRDNAKNTVYLQMNSLKQEDTAVYYCAADYTGVCRYDYWGQGTLVTVSS | low polyreactivity |
| QVQLVESGGGLVQAGGSLRLSCATSRSTFVLYAMGWYRQAPGKERELDAAISGGATTTYADSVKGRFTISRDNAKNTVYLQMNSLKPEVTAVYYCAADFSTYVVSGAALDYWGQGTQVTLSS | low polyreactivity |
| QVQLVESGGGLVQAGGSLRLSCDASGAIFFSYAMRSYREAPGKERELVATITAGGGSTNYADSVKGRFTISRDNAKNTVYLQMNSLKAEDTAVYYSAAKRLSWHRYGYWGQGSQVTVSS | low polyreactivity |
| QVQLVESGGGLVQAGGSLRLSCDASGFIFDEYAMGWYRPAPGEERELVAAINWRGGSTYYADSVKGRFTISRDNAKNTVYLQMNSLKPEDTAVYYCAARNVYVWYDYWGQGTQVTVSS | low polyreactivity |

| Sequence | polyreactivity (PSR sort gate) |
| --- | --- |
| QVQLVESGGGLVQAGGSLRLSCDASGFIFGRNAMGWYRQAPGKERELVAGISSSGFRTFYADSVKGRFTISRDNAKNTDYLQMNSLKQEDTAVYYCAAEIRYYKYGSYYYWGKGTQVTVSS | high polyreactivity |
| QVQLVESGGGLVQAGGSLRLSCDASGFIFNAYAMGWYRQAPGKERELVAAISTRGSNTYYADSVKGRFTISRDNAKNTVYLQMNSLKPDDTAVYYCAARGYVTFSKSNYWGQGTQVTVSS | high polyreactivity |
| QVQLVESGGGLVQAGGSLRLSCDASGFIIARNAMGWYRQAPGKERELVAAISASGGRTYYADSVKGRFTISRDNAKNTVYLQMNSLKPEDTAVYYCAARRDGRSGSYNYWGQGTQVTVSS | high polyreactivity |
| QVQLVESGGGLVQAGGSLRLSCDASGFISRYAMGWYRQAPGKERELVAAINRSGGRTYYADSVKGRFTISRDNAKNTVYLQMNSLTPEDTAVYYCAALRGRYYGVLGEYWGQCTQVTVSS | high polyreactivity |
| QVQLVESGGGLVQAGGSLRLSCDASGFTFATYAMGRYRQAPGKERELVAAISSGGYTYYADSVKGRFTISRDNAKNTVYLQMNSLKPEDTGVYYCNVSIGLFYLWYFNRYYYWGQGTQVTVSS | high polyreactivity |
| QVQLVESGGGLVQAGGSLRLSCDASGFTFKTNAMGWYRQAPGKERELVAAINRSGGSTYYADSVKGRFTISRDNAKNTVYLQMNSLKPEDTAVYYCATRSYLPGVRRGYDYWGQGTQVTVSS | high polyreactivity |
| QVQLVESGGGLVQAGGSLRLSCDASGFTLAWNARGWSRQAPRKERELVATISRSGSSTSYADSVKGRFTISRDNAKNTVYLQMNSLKPEDTAVYYCAKSGRYGFWGQGTQVTVSS | high polyreactivity |
| QVQLVESGGGLVQAGGSLRLSCDASGGTFVHNAMGWYRQAPGKERELVAAISWSGGSTYYADSVKGRFTISRDNATNTVYLQMNSLKPEDTAVNYCAADLPDYKDIFDSWGQGTQVTLSS | low polyreactivity |
| QVQLVESGGGLVQAGGSLRLSCDASGIIFFIYTMGWYRQAPGKERELVAVITRGGRTKYADSVKGRLTISRDNAKNTVFLQMNRLNPEDNAVYYCAAKGSRSYYWGQGTHVTVSS | low polyreactivity |
| QVQLVESGGGLVQAGGSLRLSCDASGIIFPYYAMGWYRQAPGKERELVAGISSSGGITYADSVKGRFTISRDNAKNTVYLQMNSLNPEDTAVYYCNAEYQWLEYDYWGQGTQVTVSS | low polyreactivity |
| QVQLVESGGGLVQAGGSLRLSCDASGIIFYYNAMGWYRQAPGKERELVDRINSGGSTNYADSVKGRFTISRDNAKNTVDFQMTSMKPEDTAVYYCAARVRRWSYYGALFEYWGQGTQVTVSS | low polyreactivity |
| QVQLVESGGGLVQAGGSLRLSCDASGITIRLYGMGWYRQAPGTERELVATITRDGRTYYADSVKGRFTISRDNAKNTVYLQMNSLKPEDTGVYYCARPARYSYGDGYWGQGTEVTVSS | low polyreactivity |
| QVQLVESGGGLVQAGGSLRLSCDASGLTFDQYAMGWYRQGPGKERELVAAISGSDSTYYADSVKGRFTISRDNAKNTVYLQMNSLKPEDTAVYYCAASGDYVNIITGERFDARLYDYWGQGTQVTVSS | low polyreactivity |
| QVQLVESGGGLVQAGGSLRLSCDASGNIFSDYTMGWYRQAPGKERELVAAISGDGGTTYYADSVKGRFTISRDNAKNTVYLQMNSLNPEDTAVYYCAADGYYDAYDQFFIVYYEYDYWGQGTQVTVSS | low polyreactivity |
| QVQLVESGGGLVQAGGSLRLSCDASGNIFSWNTMGWYRKAPGKEWELVAAITFRVTRTFYADSVKGRFTISRDNAKNTVYFLMNSLNPEDTAVYYCAARYYYSYSLGYDYWGQGTQVTVSS | high polyreactivity |
| QVQLVESGGGLVQAGGSLRLSCDASGNTFLYNTMGWYRQAPGKEREFVAAISGSGGSTYYADSVKGRFTISRDNAKYTVYLQMNSLKPEDTAVYYCNALWRRRKYDYWGEGTQVTVSS | high polyreactivity |
| QVQLVESGGGLVQAGGSLRLSCDASGNTFRGYAMGWYRQAPGKERELVAAITSGGRTYYADSVKGRFTISRDNAKNTVYLQMNSLKPEDTAVYYCNAVLGRYVTYNYWGQGTQVTVSS | high polyreactivity |
| QVQLVESGGGLVQAGGSLRLSCDASGRIFAYYTMGWNRQAPGKERELVAAINQSGGSTYYADSVKGRITISRDNAKNTDYLQMNILKPEDTAVYYCAAKRYSMYARRYAYVYWGQVTQVTVSS | low polyreactivity |
| QVQLVESGGGLVQAGGSLRLSCDASGRIFHGNAMGWYRQAPGKEREFVAAITYGGGSTYYADSVKGRFTISRDNAKNTVYLQMNSLKPEDTAVYYCNARGARSNGVRGYYSKLNYWGQGTQVTVSS | high polyreactivity |
| QVQLVESGGGLVQAGGSLRLSCDASGRIFLDYVMGWYRQAPGKERELVAAISWSGDRTDYADSVKGRFTISRDNAKNTVYLQMNSLKPEDTAVYYCATTWYFAYSDDYKFDYWGQGTQVTVSS | low polyreactivity |
| QVQLVESGGGLVQAGGSLRLSCDASGRIFLHYAMRLYRQAPGTERELVAAISRSGGSTYYADSVKGRFTISRDNAKNTVYLQMNSLKPEDTAVYYCAADGPGDYLTLEWYWFTYYYWGQGTQVTVSS | high polyreactivity |

From the nanobody polyreactivity screen of Harvey et al. (2022)
